From publication doi:10.1101/2021.09.24.461649 (bioRxiv, 2021) come the findings set out here.

The data set deals with the molecule itself. The data set can be described thus: SEC. For orientation: In gel filtration, larger molecules generally elute earlier.

B1: EspC (ESX-1 secreted protein C), wild type (natural protein)
chain: MMTENLTVQPERLGVLASHHDNAAVDASSGVEAAAGLGESVAITHGPYCSQFNDTLNVYLTAHNALGSSLHTAGVDLAKSLRIAAKIYSEADEAWRKAIDGLFT
As usually defined, the stoichiometry N is the number of molecules, sites or subunits per partner or assembly. Regarding B1, the “stoichiometry N” value was found to be 6.
